Measurements as given in article doi:10.1101/2022.05.05.490830.
Read-outs that look alike come from different tables or passages of the source.

Tests used:
Assay in all cases: BLI
hPolεCD (E. coli) [1] = molecular target: T1, hPolεCD (E. coli) (Homo sapiens, UniProt Q07864 28-1194)
hPolεCD (E. coli) [2] = molecular target: T1, hPolεCD (E. coli); remark: listed apart in the source
hPolεCD (insect) = hPolεCD (insect) (Homo sapiens, UniProt Q07864 28-1194)
hPolεCD (insect), sequence (Q07864 28-1194): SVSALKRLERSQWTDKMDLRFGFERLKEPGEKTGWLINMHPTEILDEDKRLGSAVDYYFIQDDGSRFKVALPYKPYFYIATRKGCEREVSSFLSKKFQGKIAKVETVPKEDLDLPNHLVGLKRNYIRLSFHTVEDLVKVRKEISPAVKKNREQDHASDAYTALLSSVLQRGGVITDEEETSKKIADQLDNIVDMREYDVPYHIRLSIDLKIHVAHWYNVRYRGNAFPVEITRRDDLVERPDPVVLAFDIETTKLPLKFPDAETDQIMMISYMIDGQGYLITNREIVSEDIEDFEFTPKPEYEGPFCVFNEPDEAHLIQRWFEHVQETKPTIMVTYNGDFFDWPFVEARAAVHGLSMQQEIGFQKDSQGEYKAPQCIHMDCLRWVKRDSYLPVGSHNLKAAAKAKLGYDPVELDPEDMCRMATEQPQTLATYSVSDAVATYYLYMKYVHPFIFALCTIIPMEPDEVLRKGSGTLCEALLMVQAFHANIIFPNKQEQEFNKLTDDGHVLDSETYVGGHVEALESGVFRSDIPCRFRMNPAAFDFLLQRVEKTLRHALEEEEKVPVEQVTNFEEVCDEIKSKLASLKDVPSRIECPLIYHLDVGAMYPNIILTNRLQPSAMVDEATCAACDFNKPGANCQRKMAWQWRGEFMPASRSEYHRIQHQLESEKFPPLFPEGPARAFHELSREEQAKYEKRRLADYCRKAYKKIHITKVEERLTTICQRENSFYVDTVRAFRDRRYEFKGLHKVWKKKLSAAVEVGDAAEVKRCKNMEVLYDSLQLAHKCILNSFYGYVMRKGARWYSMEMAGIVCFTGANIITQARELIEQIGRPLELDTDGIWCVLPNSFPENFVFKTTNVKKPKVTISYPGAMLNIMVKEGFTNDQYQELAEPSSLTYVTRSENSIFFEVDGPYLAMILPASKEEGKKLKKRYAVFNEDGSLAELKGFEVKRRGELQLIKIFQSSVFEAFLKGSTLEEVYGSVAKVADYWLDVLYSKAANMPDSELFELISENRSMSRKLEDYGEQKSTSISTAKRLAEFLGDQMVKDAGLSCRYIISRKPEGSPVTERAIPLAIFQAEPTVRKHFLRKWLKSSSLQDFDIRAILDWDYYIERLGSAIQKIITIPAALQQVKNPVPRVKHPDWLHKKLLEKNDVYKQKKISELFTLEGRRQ

T1 sequence (Q07864 28-1194): as above

B1: Octet template:primer 23/11 (dsDNA)
DNA 1: AATACATAAGCGCTCCAGGCAAT
DNA 2: GCCTGGAGCGC
modifications: 3' dideoxycytidine on primer
- Kd (hPolεCD (E. coli) [1]): 3260 ± 386 nM
- Kd (hPolεCD (E. coli) [2]): 167 ± 24 nM
- Kd (hPolεCD (insect)): 213 ± 43 nM
